Assay results published in article PMC5624674, “CbtA toxin of Escherichia coli inhibits cell division and cell elongation via direct and independent interactions with FtsZ and MreB” (PLoS Genetics, 2017).
Numbering of substitutions follows the chain as printed.

T1: λCI-CbtA fusion protein (wild-type CbtA toxin of E. coli) (E. coli, UniProt P64524 1-124)
T1 construct: also called YeeV; source: bacterial two-hybrid fusion, produced in E. coli reporter strain FW102 OL2-62; not shown: λCI, N-terminal, kept
T1 sequence: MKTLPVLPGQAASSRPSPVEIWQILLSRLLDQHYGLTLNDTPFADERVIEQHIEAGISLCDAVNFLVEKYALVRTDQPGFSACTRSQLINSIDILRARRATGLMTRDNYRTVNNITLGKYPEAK

T2: λCI-CbtA-V48E (E. coli, UniProt P64524 1-124, V48E)
T2 construct: source: bacterial two-hybrid fusion, produced in E. coli reporter strain FW102 OL2-62; not shown: λCI, N-terminal, kept
T2 sequence: T1 sequence with V48E

B1: α-MreB-E196G (natural protein, E. coli, UniProt P0A9X4 1-347, looked up)
chain: MLKKFRGMFSNDLSIDLGTANTLIYVKGQGIVLNEPSVVAIRQDRAGSPKSVAAVGHDAKQMLGRTPGNIAAIRPMKDGVIADFFVTEKMLQHFIKQVHSNSFMRPSPRVLVCVPVGATQVERRAIRESAQGAGAREVFLIEEPMAAAIGAGLPVSEATGSMVVDIGGGTTEVAVISLNGVVYSSSVRIGGDRFDGAIINYVRRNYGSLIGEATAERIKHEIGSAYPGDEVREIEVRGRNLAEGVPRGFTLNSNEILEALQEPLTGIVSAVMVALEQCPPELASDISERGMVLTGGGALLRNLDRLLMEETGIPVVVAEDPLTCVARGGGKALEMIDMHGGDLFSEE
notes: not shown: RNA polymerase α subunit N-terminal domain, N-terminal, kept
B2: α-MreB-E262G (natural protein, E. coli, UniProt P0A9X4 1-347, looked up)
chain: B1 chain with G196E, E262G
notes: as for B1
B3: α-MreB-V173A (natural protein, E. coli, UniProt P0A9X4 1-347, looked up)
chain: B1 chain with V173A, G196E
notes: as for B1
B4: α-MreB-I126V (natural protein, E. coli, UniProt P0A9X4 1-347, looked up)
chain: B1 chain with I126V, G196E
notes: as for B1
B5: α-FtsZ fusion protein (wild-type E. coli FtsZ) (natural protein, UniProt P0A9A6 1-383, looked up)
chain: MFEPMELTNDAVIKVIGVGGGGGNAVEHMVRERIEGVEFFAVNTDAQALRKTAVGQTIQIGSGITKGLGAGANPEVGRNAADEDRDALRAALEGADMVFIAAGMGGGTGTGAAPVVAEVAKDLGILTVAVVTKPFNFEGKKRMAFAEQGITELSKHVDSLITIPNDKLLKVLGRGISLLDAFGAANDVLKGAVQGIAELITRPGLMNVDFADVRTVMSEMGYAMMGSGVASGEDRAEEAAEMAISSPLLEDIDLSGARGVLVNITAGFDLRLDEFETVGNTIRAFASDNATVVIGTSLDPDMNDELRVTVVATGIGMDKRPEITLVTNKQVQQPVMDRYQQHGMAPLTQEQKPVAKVVNDNAPQTAKEPDYLDIPAFLRKQAD
notes: also called λCI-FtsZ; Eco FtsZ; not shown: RNA polymerase α subunit N-terminal domain, N-terminal, kept
B6: α-FtsZ-D180K (natural protein, E. coli, UniProt P0A9A6 1-383, looked up)
chain: B5 chain with D180K
notes: as for B1
B7: α-FtsZ-L169P (natural protein, E. coli, UniProt P0A9A6 1-383, looked up)
chain: B5 chain with L169P
notes: as for B1
B8: α-FtsZ-D180N (natural protein, E. coli, UniProt P0A9A6 1-383, looked up)
chain: B5 chain with D180N
notes: as for B1
B9: α-FtsZ-S177P (natural protein, E. coli, UniProt P0A9A6 1-383, looked up)
chain: B5 chain with S177P
notes: as for B1

Assays:
Assay in all cases: two-hybrid
[1] = target: T3, λCI-RodZNTD (residues 2–84) (E. coli, UniProt P27434 2-84); settings: partners not purified
T3 construct: also called cytoplasmic N-terminal domain of RodZ; not shown: λCI, N-terminal, kept

two-hybrid = target: the molecule itself
[2] = target: T4, λCI-ZipACTD (residues 186–328) (E. coli, UniProt P77173 186-328); settings: partners not purified
T4 construct: also called C-terminal domain of ZipA; not shown: λCI, N-terminal, kept

[3] = target: T1, λCI-CbtA fusion protein (wild-type CbtA …); settings: partners not purified
λCI-CbtA-V48E = target: T2, λCI-CbtA-V48E; settings: partners not purified
[4] = target: B5; settings: partners not purified

T3 sequence (P27434 2-84): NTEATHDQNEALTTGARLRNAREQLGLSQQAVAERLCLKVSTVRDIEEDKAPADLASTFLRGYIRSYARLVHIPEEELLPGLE

Row | Binder | percent reduction of lacZ expression against wild-type α-MreB [1] [%] | percent reduction of lacZ expression against wild-type α-FtsZ [4] [%] | further results
1 | B1 | < 30 |  | 
2 | B2 | < 30 |  | 
3 | B3 | < 30 |  | 
4 | B4 | < 30 |  | 
5 | B5 |  |  | fold increase in lacZ expression (two-hybrid): 4 fold; fold increase in lacZ expression [2]: 10 fold; fold increase in lacZ expression [3]: 18 fold
6 | B6 |  |  | fold increase in lacZ expression (λCI-CbtA-V48E): 9 fold
7 | B7 |  | < 25 | 
8 | B8 |  | < 25 | 
9 | B9 |  | < 25 | 
